Key:
human IL-21R (human) [1] = target: human IL-21R (human) (UniProt Q9HBE5); experiment: AlphaSeq yeast mating assay, unbuffered media
human IL-21R (human) [2] = target: human IL-21R (human) (UniProt Q9HBE5); experiment: AlphaSeq yeast mating assay, pH 6 media
human IL-21R (human) [3] = target: human IL-21R (human) (UniProt Q9HBE5); experiment: AlphaSeq yeast mating assay, pH 5 media
human IL-21R (human) [4] = target: human IL-21R (human) (UniProt Q9HBE5); experiment: AlphaSeq yeast mating assay, pH 7 media

Substance | Kd (human IL-21R (human) [1]) [µM] | Kd (human IL-21R (human) [2]) [µM] | Kd (human IL-21R (human) [3]) [µM] | Kd (human IL-21R (human) [4]) [nM]
IL-21_A75N (from UniProt Q9HBE4 32-152) (ligand) | 780 | 28 | – | –
IL-21_D33P (from UniProt Q9HBE4 32-152) (ligand) | – | – | 40 | –
IL-21_D33R (from UniProt Q9HBE4 32-152) (ligand) | – | – | 26 | 140
IL-21_D44G (from UniProt Q9HBE4 32-152) (ligand) | – | 0.05 | – | 200
IL-21_D44P (from UniProt Q9HBE4 32-152) (ligand) | 590 | 7.3 | – | –
IL-21_D44T (from UniProt Q9HBE4 32-152) (ligand) | – | 0.044 | 0.35 | 160
IL-21_D47P (from UniProt Q9HBE4 32-152) (ligand) | 530 | 27 | – | –
IL-21_D47S (from UniProt Q9HBE4 32-152) (ligand) | 330 | 4.6 | – | –
IL-21_D66M (from UniProt Q9HBE4 32-152) (ligand) | – | – | 0.055 | 26
IL-21_E59R (from UniProt Q9HBE4 32-152) (ligand) | – | 1.5 | 41 | 340
IL-21_E72L (from UniProt Q9HBE4 32-152) (ligand) | – | – | 0.047 | 160
IL-21_F76D (from UniProt Q9HBE4 32-152) (ligand) | – | 55 | – | –
IL-21_F76H (from UniProt Q9HBE4 32-152) (ligand) | – | 14 | 79 | 9200
IL-21_F76P (from UniProt Q9HBE4 32-152) (ligand) | – | 41 | 250 | –
IL-21_F76Q (from UniProt Q9HBE4 32-152) (ligand) | – | 50 | – | 63000
IL-21_F79K (from UniProt Q9HBE4 32-152) (ligand) | – | 5.5 | – | –
IL-21_F79P (from UniProt Q9HBE4 32-152) (ligand) | – | 7.8 | – | 3300
IL-21_F79R (from UniProt Q9HBE4 32-152) (ligand) | – | 4.4 | 65 | 4500
IL-21_F79T (from UniProt Q9HBE4 32-152) (ligand) | – | 3.3 | 92 | 1400
IL-21_I37N (from UniProt Q9HBE4 32-152) (ligand) | – | – | 33 | 330
IL-21_I37R (from UniProt Q9HBE4 32-152) (ligand) | – | 0.17 | – | 200
IL-21_I43P (from UniProt Q9HBE4 32-152) (ligand) | – | – | 330 | –

Substance | Kd (human IL-21R (human) [1]) [µM] | Kd (human IL-21R (human) [2]) [µM] | Kd (human IL-21R (human) [3]) [µM] | Kd (human IL-21R (human) [4]) [nM]
IL-21_I43S (from UniProt Q9HBE4 32-152) (ligand) | – | 1.1 | 43 | –
IL-21_I45D (from UniProt Q9HBE4 32-152) (ligand) | – | 0.19 | 20 | –
IL-21_I45H (from UniProt Q9HBE4 32-152) (ligand) | – | 6.2 | – | –
IL-21_I45N (from UniProt Q9HBE4 32-152) (ligand) | – | – | – | 1000
IL-21_I45P (from UniProt Q9HBE4 32-152) (ligand) | – | – | 100 | –
IL-21_I45S (from UniProt Q9HBE4 32-152) (ligand) | – | 0.11 | 15 | 160
IL-21_I45Y (from UniProt Q9HBE4 32-152) (ligand) | – | 12 | – | –
IL-21_I95P (from UniProt Q9HBE4 32-152) (ligand) | – | 3.6 | 64 | –
IL-21_I96A (from UniProt Q9HBE4 32-152) (ligand) | 160 | 11 | – | –
IL-21_I96G (from UniProt Q9HBE4 32-152) (ligand) | – | 52 | – | –
IL-21_I96T (from UniProt Q9HBE4 32-152) (ligand) | – | 66 | – | –
IL-21_I100E (from UniProt Q9HBE4 32-152) (ligand) | – | 78 | – | –
IL-21_I148S (from UniProt Q9HBE4 32-152) (ligand) | 170 | – | – | –
IL-21_K104G (from UniProt Q9HBE4 32-152) (ligand) | – | 0.079 | – | –
IL-21_K106S (from UniProt Q9HBE4 32-152) (ligand) | – | – | 7.3 | –
IL-21_L42D (from UniProt Q9HBE4 32-152) (ligand) | – | 14 | 1600 | –
IL-21_L42E (from UniProt Q9HBE4 32-152) (ligand) | – | – | – | 26000
IL-21_L42G (from UniProt Q9HBE4 32-152) (ligand) | – | 32 | – | –
IL-21_L42N (from UniProt Q9HBE4 32-152) (ligand) | – | 26 | – | 950
IL-21_L42R (from UniProt Q9HBE4 32-152) (ligand) | – | – | 150 | –
IL-21_L42S (from UniProt Q9HBE4 32-152) (ligand) | – | – | – | 11000
IL-21_L42Y (from UniProt Q9HBE4 32-152) (ligand) | – | 0.011 | 0.043 | 21

Substance | Kd (human IL-21R (human) [1]) [µM] | Kd (human IL-21R (human) [2]) [µM] | Kd (human IL-21R (human) [3]) [µM] | Kd (human IL-21R (human) [4]) [nM]
IL-21_L49H (from UniProt Q9HBE4 32-152) (ligand) | – | – | 160 | –
IL-21_L49N (from UniProt Q9HBE4 32-152) (ligand) | – | – | 170 | –
IL-21_L49P (from UniProt Q9HBE4 32-152) (ligand) | – | 55 | 330 | –
IL-21_L49R (from UniProt Q9HBE4 32-152) (ligand) | 160 | – | – | –
IL-21_L49S (from UniProt Q9HBE4 32-152) (ligand) | – | – | 240 | –
IL-21_L56E (from UniProt Q9HBE4 32-152) (ligand) | 110 | 30 | – | –
IL-21_L56N (from UniProt Q9HBE4 32-152) (ligand) | – | – | 72 | 9700
IL-21_L56S (from UniProt Q9HBE4 32-152) (ligand) | – | 46 | – | 44000
IL-21_L61H (from UniProt Q9HBE4 32-152) (ligand) | – | – | 0.12 | 24
IL-21_L120M (from UniProt Q9HBE4 32-152) (ligand) | – | 0.036 | 0.052 | 56
IL-21_L120V (from UniProt Q9HBE4 32-152) (ligand) | – | 0.21 | 1.2 | 210
IL-21_M39K (from UniProt Q9HBE4 32-152) (ligand) | 890 | – | – | –
IL-21_M39P (from UniProt Q9HBE4 32-152) (ligand) | 260 | – | – | –
IL-21_M39Q (from UniProt Q9HBE4 32-152) (ligand) | – | 83 | – | –
IL-21_N51G (from UniProt Q9HBE4 32-152) (ligand) | – | – | 0.11 | 44
IL-21_N70A (from UniProt Q9HBE4 32-152) (ligand) | – | – | 0.033 | 94
IL-21_P108G (from UniProt Q9HBE4 32-152) (ligand) | – | – | 11 | –
IL-21_P108Q (from UniProt Q9HBE4 32-152) (ligand) | – | – | – | 110
IL-21_P108T (from UniProt Q9HBE4 32-152) (ligand) | – | – | 57 | 1100
IL-21_P132A (from UniProt Q9HBE4 32-152) (ligand) | – | 0.024 | – | 120
IL-21_Q41K (from UniProt Q9HBE4 32-152) (ligand) | – | – | 150 | 7200
IL-21_Q41P (from UniProt Q9HBE4 32-152) (ligand) | – | 35 | – | –

Substance | Kd (human IL-21R (human) [1]) [µM] | Kd (human IL-21R (human) [2]) [µM] | Kd (human IL-21R (human) [3]) [µM] | Kd (human IL-21R (human) [4]) [nM]
IL-21_Q48K (from UniProt Q9HBE4 32-152) (ligand) | – | 0.2 | 11 | –
IL-21_Q80A (from UniProt Q9HBE4 32-152) (ligand) | – | 12 | – | –
IL-21_Q150S (from UniProt Q9HBE4 32-152) (ligand) | – | – | 0.043 | 120
IL-21_R34A (from UniProt Q9HBE4 32-152) (ligand) | – | – | 0.36 | –
IL-21_R34F (from UniProt Q9HBE4 32-152) (ligand) | – | 0.052 | 0.39 | 110
IL-21_R34N (from UniProt Q9HBE4 32-152) (ligand) | – | 0.052 | 0.96 | –
IL-21_R34V (from UniProt Q9HBE4 32-152) (ligand) | – | 0.027 | 0.14 | 110
IL-21_R38A (from UniProt Q9HBE4 32-152) (ligand) | – | – | 15 | –
IL-21_R38M (from UniProt Q9HBE4 32-152) (ligand) | – | 1.2 | – | 2000
IL-21_R105D (from UniProt Q9HBE4 32-152) (ligand) | – | – | 170 | –
IL-21_R105K (from UniProt Q9HBE4 32-152) (ligand) | 250 | – | – | –
IL-21_V46N (from UniProt Q9HBE4 32-152) (ligand) | – | 37 | – | –
IL-21_V53Q (from UniProt Q9HBE4 32-152) (ligand) | – | 0.16 | – | 200
IL-21_V57H (from UniProt Q9HBE4 32-152) (ligand) | – | 0.024 | 1.6 | –
IL-21_V57M (from UniProt Q9HBE4 32-152) (ligand) | – | – | 0.057 | 25
IL-21_V57P (from UniProt Q9HBE4 32-152) (ligand) | – | – | – | 3000
IL-21_V57T (from UniProt Q9HBE4 32-152) (ligand) | – | – | 0.17 | 78
IL-21_V57Y (from UniProt Q9HBE4 32-152) (ligand) | – | 0.016 | 0.046 | –
IL-21_V98R (from UniProt Q9HBE4 32-152) (ligand) | – | – | 0.046 | –
IL-21_W73N (from UniProt Q9HBE4 32-152) (ligand) | – | 3.4 | 65 | –
IL-21_W73S (from UniProt Q9HBE4 32-152) (ligand) | – | – | 39 | 340
IL-21_W73V (from UniProt Q9HBE4 32-152) (ligand) | – | 6.5 | 110 | –
